B1: DmoB (Arthrobacter globiformis NBRC 12137) (protein)
chain: MTAPVLEARRIDSDTYRVVMRHLPTGVAAICSTDPVAGTQNGMIVGTFASLSMEPALVTFSVMHSSTSWPRIAEAGQFSISLLAEDQQQVCRALSAKGEDKLGDVAWSESAWGTPHIHGSLAWFDCRIEQQFTAGDHVVVIASVLDMTPAEGASAPLIFHGGRFGSFRENA

Assays:
DmoB = target: T1, DmoB (Arthrobacter globiformis, UniProt H0QJX4); assay: fluorescence quenching titration of FMN with DmoB; assay type: binding
T1 sequence (H0QJX4 1-171): B1 chain

purified protein [1] = substrate: Cc1cc2nc3c(=O)[nH]c(=O)nc-3n(C[C@H](O)[C@H](O)[C@H](O)COP(=O)(O)OP(=O)(O)OC[C@H]3O[C@@H](n4cnc5c(N)ncnc54)[C@H](O)[C@@H]3O)c2cc1C; assay: purified protein; details: 50 μM NADH, 20 mM PIPES, pH 7.4, 25 °C
purified protein [2] = substrate: NC(=O)C1=CN([C@@H]2O[C@H](COP(=O)(O)OP(=O)(O)OC[C@H]3O[C@@H](n4cnc5c(N)ncnc54)[C@H](O)[C@@H]3O)[C@@H](O)[C@H]2O)C=CC1; assay: purified protein; details: 50 μM FMN, 20 mM PIPES, pH 7.4, 25 °C
purified protein [3] = substrate: Cc1cc2nc3c(=O)[nH]c(=O)nc-3n(C[C@H](O)[C@H](O)[C@H](O)CO)c2cc1C; assay: purified protein; details: 50 μM NADH, 20 mM PIPES, pH 7.4, 25 °C
purified protein [4] = substrate: Cc1cc2nc3c(=O)[nH]c(=O)nc-3n(C[C@H](O)[C@H](O)[C@H](O)COP(=O)(O)O)c2cc1C; assay: purified protein; details: 50 μM NADH, 20 mM PIPES, pH 7.4, 25 °C

| Molecule | Kd (DmoB) | Km (purified protein [1]) | Vmax (purified protein [1]) | kcat/Km (purified protein [1]) | Km (purified protein [2]) | Vmax (purified protein [2]) | kcat/Km (purified protein [2]) | Km (purified protein [3]) | Vmax (purified protein [3]) | kcat/Km (purified protein [3]) | Km (purified protein [4]) | Vmax (purified protein [4]) | kcat/Km (purified protein [4]) |
| --- | --- | --- | --- | --- | --- | --- | --- | --- | --- | --- | --- | --- | --- |
| Cc1cc2nc3c(=O)[nH]c(=O)nc-3n(C[C@H](O)[C@H](O)[C@H](O)COP(=O)(O)O)c2cc1C [FMN] | 1110 ± 710 nM |  |  |  |  |  |  |  |  |  |  |  |  |
| B1 |  | 84 ± 12 µM | 153 µmol/min/mg | 583000 M⁻¹ s⁻¹ | 2.3 ± 0.5 µM | 149 µmol/min/mg | 2.09e+07 M⁻¹ s⁻¹ | 142 ± 7 µM | 130 µmol/min/mg | 283000 M⁻¹ s⁻¹ | 18 ± 5 µM | 207 µmol/min/mg | 3.72e+06 M⁻¹ s⁻¹ |

Reference: article PMC7203701 (ACS Omega, 2020)
